Here are results for two molecules from publication PMC6206164, “Fibroblast Growth Factor Binding Protein 3 (FGFBP3) impacts carbohydrate and lipid metabolism” (Scientific Reports, 2018).

To fix the notation:
B1: Recombinant human FGF21 (ligand, UniProt Q9NSA1 29-209, looked up)
chain: HPIPDSSPLLQFGGQVRQRYLYTDDAQQTEAHLEIREDGTVGGAADQSPESLLQLKALKPGVIQILGVKTSRFLCQRPDGALYGSLHFDPEACSFRELLLEDGYNVYQSEAHGLPLHLPGNKSPHRDPAPRGPARFLPLPGLPPALPEPPGILAPQPPDVGSSDPLSMVGPSQGRSPSYAS
notes: Fibroblast growth factor 21 (FGF21), human, recombinant; source: bought: R&D Systems
B2: MBP-tagged human recombinant BP3 devoid of its signal peptide (natural protein, UniProt Q8TAT2 27-258, looked up)
chain: RREKGAASNVAEPVPGPTGGSSGRFLSPEQHACSWQLLLPAPEAAAGSELALRCQSPDGARHQCAYRGHPERCAAYAARRAHFWKQVLGGLRKKRRPCHDPAPLQARLCAGKKGHGAELRLVPRASPPARPTVAGFAGESKPRARNRGRTRERASGPAAGTPPPQSAPPKENPSERKTNEGKRKAALVPNEERPMGTGPDPDGLDGNAELTETYCAEKWHSLCNFFVNFWNG
notes: also called FGFBP3

For experiment [1], the target named is B2. The experiment in a line: ELISA; competitive binding; increasing excess of KLB or KLa bound to immobilised FGF19 or FGF21 (2.5 μg/ml) for 1 h before BP3 or MBP control (0.15 μg/ml); MaxiSorp plates. The note with it: both partners purified. In general terms: An ELISA detects its analyte on a solid surface through an enzyme-linked reagent.
For experiment [2], the target named is T1, Human recombinant FGFR4 Fc Chimera (human, UniProt P22455 22-369).
T1 construct: Fibroblast growth factor receptor 4 (FGFR4), human, as Fc chimera; Commercial Fc chimeras of this kind hold the extracellular domain; source: bought: R&D Systems
Nature of the experiment: binding to plate-coated receptor detected by western blot; cell-free; FGFR4 Fc chimera coated on MaxiSorp plates; FGF19 (2 μg/ml) ± BP3 or MBP control (1 μg/ml), 2 h room temperature; bound proteins blotted with anti-FGFR4, anti-MBP, anti-FGF19. As to conditions: both partners purified. In general terms: In western blotting, separated proteins are transferred to a membrane and probed.

Take B1: the binding result in experiment [1] is listed as “binds”.

As to B2, the binding result in experiment [2] is reported as “binds”.
